Measurements reported in paper PMC7723274.
No end group written: not given here.

How the values were obtained:
[1] = biological target: hexon HVR1 chimera virion (HAdV-5 with hexon HVR1 replaced by that of HAdV-64) (human adenovirus 5 (HAdV-5) | human adenovirus 64 (HAdV-64)) (UniProt P04133)
[2] = biological target: HAdV-5 virion (E1/E3-deleted, replication-defective HAdV-5 vector with an eGFP cassette) (human adenovirus 5 (HAdV-5)) (UniProt P04133)
[3] = biological target: C4 vertex chimera virion (HAdV-5 with penton base residues 288 to 571 from HAdV-64 and the DTET to GYAR mutation in fiber) (human adenovirus 5 (HAdV-5) | human adenovirus 64 (HAdV-64)) (UniProt P04133)
[4] = biological target: hexon HVR1/C4 vertex chimera virion (C4 chimera with hexon HVR1 replaced by that of HAdV-64) (human adenovirus 5 (HAdV-5) | human adenovirus 64 (HAdV-64)) (UniProt P04133)
[5] = biological target: HAdV-5 virion (E1/E3-deleted, replication-defective HAdV-5 vector with an eGFP cassette) (human adenovirus 5 (HAdV-5)) (UniProt P04133); remark: listed apart in the source
[6] = biological target: HAdV-64 virion (E3 deleted, replication-competent HAdV-64 virus containing a CMV-eGFP ORF, WT HAdV-64 capsid) (human adenovirus 64 (HAdV-64))
[7] = biological target: hexon HVR1 chimera virion (HAdV-5 with hexon HVR1 replaced by that of HAdV-64) (human adenovirus 5 (HAdV-5) | human adenovirus 64 (HAdV-64)) (UniProt P04133); experiment: co-sedimentation; 2.5 μg purified virus with 20 μM HD5 in 150 mM NaCl, 20 mM Tris, 5% glycerol, 1 mM MgCl2, on ice 45 min; discontinuous Histodenz gradient, 4°C, virus band collected; SDS-PAGE, fluorescent stain; HD5 normalised to proteins V and VII and read against a standard curve
[8] = biological target: HAdV-5 virion (E1/E3-deleted, replication-defective HAdV-5 vector with an eGFP cassette) (human adenovirus 5 (HAdV-5)) (UniProt P04133); experiment: as above
[9] = biological target: HAdV-64 virion (E3 deleted, replication-competent HAdV-64 virus containing a CMV-eGFP ORF, WT HAdV-64 capsid) (human adenovirus 64 (HAdV-64)); experiment: as above
[10] = biological target: C4 vertex chimera virion (HAdV-5 with penton base residues 288 to 571 from HAdV-64 and the DTET to GYAR mutation in fiber) (human adenovirus 5 (HAdV-5) | human adenovirus 64 (HAdV-64)) (UniProt P04133); experiment: as above
[11] = biological target: hexon HVR1 chimera virion (HAdV-5 with hexon HVR1 replaced by that of HAdV-64) (human adenovirus 5 (HAdV-5) | human adenovirus 64 (HAdV-64)) (UniProt P04133); remark: listed apart in the source

## ATCYCRTGRCATRESLSGVCEISGRLYRLCCR (not fully specified; cysteine pairing not given here) [Human defensin 5]
[1]
  HD5 concentration at which 50% of fiber stays capsid-associated after heating to 48°C, against HAdV-5 (fully associated at 20 μM HD5) (fold higher than HAdV-5): > 2
[2]
  HD5 concentration at which 50% of fiber stays capsid-associated after heating to 48°C (fully associated at 20 μM HD5): 5 µM
[3]
  HD5 concentration at which 50% of fiber stays capsid-associated after heating to 49.3°C (fully associated at 20 μM HD5): 5 µM
[4]
  HD5 concentration at which 50% of fiber stays capsid-associated after heating to 49.3°C, against HAdV-5 (fully associated at 20 μM HD5) (fold lower than HAdV-5): 2
[5]
  binding of AF488-labeled virus to A549 cells after pre-incubation with 2.5, 5 and 10 μM HD5, fold change in GMF against no HD5: 1.4 to 2.1 fold
[6]
  infectivity on A549 cells of virus incubated with 5 μM or 10 μM HD5 (protocol 1): 4 to 5 fold
[7]
  fold less HD5 bound per virion than to HAdV-5 (fold less than HAdV-5): 5
[8]
  stoichiometry N (molecules of HD5 per virion): 7090
[9]
  fold less HD5 bound per virion than to HAdV-5 (fold less than HAdV-5): 83
[10]
  fold more HD5 bound per virion than to HAdV-5 (fold more than HAdV-5): 2.3
[11]
  HD5 IC50 of infection on A549 cells, against HAdV-5 (fold over HAdV-5): 5
